Laboratory results from article PMC13264800.

Columns and labels:
[1] = biological target: recombinant human IgE (trastuzumab-IgE; anti-Her2-IgE) (human); assay: SPR; Biacore X100, HBS-EP+ running buffer; Her2 amine-coupled on a CM5 chip, trastuzumab-IgE captured via Her2; anti-IgE as full-length IgG or Fab injected (1.56-25 nM or 1.56-50 nM), association 120 s, dissociation 300 s; 1:1 langmuir fit
[2] = biological target: recombinant macaque IgE (trastuzumab-IgE; anti-Her2-IgE) (macaque); assay: as above
[3] = biological target: recombinant human IgE (trastuzumab-IgE; anti-Her2-IgE) (human); assay: SEC-MALS; trastuzumab-IgE mixed with anti-IgE IgG at different molar ratios

Substance | Kd [1] [nM] | koff [1] [s⁻¹] | kon [1] [M⁻¹ s⁻¹] | Kd [2] [nM] | koff [2] [s⁻¹] | kon [2] [M⁻¹ s⁻¹] | stoichiometry N (4:4 (anti-IgE:IgE)) [3]
Omalizumab Fab | 14.6 | 0.00614 | 420000 | 16.1 | 0.00811 | 504000 | –
Omalizumab full-length IgG (antibody) | 0.0594 | – | – | 0.0543 | – | – | 4
